The supplement of paper PMC9112550, “Optimization of the antimicrobial peptide Bac7 by deep mutational scanning” (BMC Biology, 2022)
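Further: peptides expressed intracellularly from a pBAD plasmid library in pooled LB shake-flask culture, induced with 0.3% L-arabinose, DNA abundance read by NGS, three biological replicates, DESeq2 with apeglm shrinkage.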

Each sequence was assayed on Escherichia coli TOP10 (assay: shrunken log2 fold change of peptide-encoding DNA abundance (4.5 h post-induction vs induction); higher = less antimicrobial activity (less host growth inhibition)). Details: time post-induction: 4.5 h; library: site-saturation at positions 5, 18, 19, 20.
In the case of RRIRWRPPRLPRPRPRPYHHPRP, the “shrunken log2 fold change” value is reported as -1.02. With RRIRARPPRLPRPRPRPIVHPRP the “shrunken log2 fold change” value was -0.311. In the case of RRIRHRPPRLPRPRPRPTMKPRP, the “shrunken log2 fold change” value is reported as -0.585. RRIRRRPPRLPRPRPRPPAGPRP was tested, and the “shrunken log2 fold change” value was 0.753. With RRIRCRPPRLPRPRPRPNAYPRP the “shrunken log2 fold change” value was -0.502. With RRIRDRPPRLPRPRPRPVPEPRP the “shrunken log2 fold change” value was 0.252. RRIRYRPPRLPRPRPRPTIGPRP was tested, and the “shrunken log2 fold change” value was -0.31. With RRIRSRPPRLPRPRPRPHHAPRP the “shrunken log2 fold change” value was -0.41. For RRIRSRPPRLPRPRPRPHIVPRP, the “shrunken log2 fold change” value was -0.243. In the case of RRIRRRPPRLPRPRPRPHIDPRP, the “shrunken log2 fold change” value is reported as -0.43. For RRIRTRPPRLPRPRPRPCDQPRP, the “shrunken log2 fold change” value was -0.252. In the case of RRIRFRPPRLPRPRPRPMFIPRP, the “shrunken log2 fold change” value is reported as -0.443. RRIRFRPPRLPRPRPRPKCVPRP was tested, and the “shrunken log2 fold change” value was -0.184. With RRIRCRPPRLPRPRPRPWCEPRP the “shrunken log2 fold change” value was -0.349. RRIRFRPPRLPRPRPRPVPWPRP was tested, and the “shrunken log2 fold change” value was 0.0558. RRIRTRPPRLPRPRPRPGVQPRP was tested, and the “shrunken log2 fold change” value was -0.133. In the case of RRIRHRPPRLPRPRPRPQDHPRP, the “shrunken log2 fold change” value is reported as -0.215. In the case of RRIRMRPPRLPRPRPRPPPLPRP, the “shrunken log2 fold change” value is reported as 1.58. In the case of RRIRPRPPRLPRPRPRPLCAPRP, the “shrunken log2 fold change” value is reported as 0.119. RRIRQRPPRLPRPRPRPDCPPRP was tested, and the “shrunken log2 fold change” value was -0.283. For RRIRSRPPRLPRPRPRPQWQPRP, the “shrunken log2 fold change” value was 0.0358. RRIRMRPPRLPRPRPRPSEFPRP was tested, and the “shrunken log2 fold change” value was -0.143. With RRIRIRPPRLPRPRPRPPSHPRP the “shrunken log2 fold change” value was -0.0543. In the case of RRIRQRPPRLPRPRPRPEMRPRP, the “shrunken log2 fold change” value is reported as 1.13. With RRIRRRPPRLPRPRPRPHYWPRP the “shrunken log2 fold change” value was 0.0315. With RRIRYRPPRLPRPRPRPTRYPRP the “shrunken log2 fold change” value was -0.469. In the case of RRIRGRPPRLPRPRPRPDPMPRP, the “shrunken log2 fold change” value is reported as 0.743. With RRIRERPPRLPRPRPRPHCDPRP the “shrunken log2 fold change” value was 0.023. With RRIRGRPPRLPRPRPRPHYTPRP the “shrunken log2 fold change” value was -0.379. In the case of RRIRDRPPRLPRPRPRPQKGPRP, the “shrunken log2 fold change” value is reported as 0.00967. For RRIRMRPPRLPRPRPRPIESPRP, the “shrunken log2 fold change” value was 0.000778. For RRIRFRPPRLPRPRPRPWDQPRP, the “shrunken log2 fold change” value was 0.0971. For RRIRGRPPRLPRPRPRPRGFPRP, the “shrunken log2 fold change” value was 0.817. In the case of RRIRRRPPRLPRPRPRPDYSPRP, the “shrunken log2 fold change” value is reported as -0.263. With RRIRRRPPRLPRPRPRPHPFPRP the “shrunken log2 fold change” value was 0.116. With RRIRFRPPRLPRPRPRPHCQPRP the “shrunken log2 fold change” value was -0.125. For RRIRERPPRLPRPRPRPYSTPRP, the “shrunken log2 fold change” value was -0.335. RRIRTRPPRLPRPRPRPSMHPRP was tested, and the “shrunken log2 fold change” value was -0.152. RRIRSRPPRLPRPRPRPVPAPRP was tested, and the “shrunken log2 fold change” value was 0.122. RRIRTRPPRLPRPRPRPMMCPRP was tested, and the “shrunken log2 fold change” value was -0.59. RRIRHRPPRLPRPRPRPSGPPRP was tested, and the “shrunken log2 fold change” value was 0.082. For RRIRMRPPRLPRPRPRPVYPPRP, the “shrunken log2 fold change” value was 0.166. With RRIRIRPPRLPRPRPRPHDIPRP the “shrunken log2 fold change” value was -0.146. For RRIRARPPRLPRPRPRPKQNPRP, the “shrunken log2 fold change” value was 0.481. RRIRQRPPRLPRPRPRPEYHPRP was tested, and the “shrunken log2 fold change” value was -0.141. For RRIRKRPPRLPRPRPRPPDVPRP, the “shrunken log2 fold change” value was -0.0127. In the case of RRIRGRPPRLPRPRPRPDWPPRP, the “shrunken log2 fold change” value is reported as 0.566. In the case of RRIRRRPPRLPRPRPRPAFKPRP, the “shrunken log2 fold change” value is reported as 0.291. With RRIRKRPPRLPRPRPRPTTRPRP the “shrunken log2 fold change” value was 0.717. RRIRGRPPRLPRPRPRPWFIPRP was tested, and the “shrunken log2 fold change” value was -0.361. In the case of RRIRFRPPRLPRPRPRPCGNPRP, the “shrunken log2 fold change” value is reported as -0.0344. For RRIRPRPPRLPRPRPRPYSHPRP, the “shrunken log2 fold change” value was -1.42. In the case of RRIRERPPRLPRPRPRPAVLPRP, the “shrunken log2 fold change” value is reported as 0.034. With RRIRERPPRLPRPRPRPWCDPRP the “shrunken log2 fold change” value was -0.508. In the case of RRIRARPPRLPRPRPRPQFLPRP, the “shrunken log2 fold change” value is reported as -0.265. For RRIRGRPPRLPRPRPRPHDVPRP, the “shrunken log2 fold change” value was 0.118. RRIRNRPPRLPRPRPRPLIPPRP was tested, and the “shrunken log2 fold change” value was -0.208. With RRIRGRPPRLPRPRPRPNFSPRP the “shrunken log2 fold change” value was 0.078. With RRIRLRPPRLPRPRPRPITFPRP the “shrunken log2 fold change” value was 0.0415. RRIRMRPPRLPRPRPRPGWGPRP was tested, and the “shrunken log2 fold change” value was 1.2. RRIRRRPPRLPRPRPRPITLPRP was tested, and the “shrunken log2 fold change” value was -0.0936. In the case of RRIRKRPPRLPRPRPRPEHQPRP, the “shrunken log2 fold change” value is reported as 0.163. For RRIRWRPPRLPRPRPRPQHYPRP, the “shrunken log2 fold change” value was -0.574. In the case of RRIRHRPPRLPRPRPRPPNPPRP, the “shrunken log2 fold change” value is reported as 0.238. For RRIRKRPPRLPRPRPRPAYRPRP, the “shrunken log2 fold change” value was 0.0954. For RRIRSRPPRLPRPRPRPVEYPRP, the “shrunken log2 fold change” value was -0.553. For RRIRPRPPRLPRPRPRPYPKPRP, the “shrunken log2 fold change” value was -0.0921. In the case of RRIRSRPPRLPRPRPRPSGDPRP, the “shrunken log2 fold change” value is reported as 0.118. For RRIRSRPPRLPRPRPRPYSGPRP, the “shrunken log2 fold change” value was -0.328. With RRIRNRPPRLPRPRPRPQISPRP the “shrunken log2 fold change” value was 0.00683. In the case of RRIRRRPPRLPRPRPRPNKMPRP, the “shrunken log2 fold change” value is reported as -0.0549. For RRIRWRPPRLPRPRPRPRHLPRP, the “shrunken log2 fold change” value was 0.11. For RRIRFRPPRLPRPRPRPPDCPRP, the “shrunken log2 fold change” value was 0.191. With RRIRFRPPRLPRPRPRPPRTPRP the “shrunken log2 fold change” value was 0.579. With RRIRIRPPRLPRPRPRPPERPRP the “shrunken log2 fold change” value was 0.324.
